# Results reported in paper PMC9115778.
# pKd: −log10 of the molar value.
# How the values were obtained:
# [1] = biological target: human IR FnIII-1 domain (residues 460-596; C468A, C524A, DFR496-498AAA) (human) (UniProt P06213); assay: ITC
# [2] = biological target: human IR L1-CR-L2/α-CT domains (human) (UniProt P06213); assay: ITC
substance,measurement,setting,value
insulin WT (ΔB30; desB30 human insulin) (ligand),pKd,[1],6.12
same,pKd,[2],7.05
